Test results taken from paper PMC2527485 (Journal of molecular biology, 2008).

Biological target: the molecule itself
Experiment: SEC + crystal structure

B1: E,Z-farnesyl diphosphate synthase (Rv1086) (enzyme)
chain: MEIIPPRLKEPLYRLYELRLRQGLAASKSDLPRHIAVLCDGNRRWARSAGYDDVSYGYRMGAAKIAEMLRWCHEAGIELATVYLLSTENLQRDPDELAALIEIITDVVEEICAPANHWSVRTVGDLGLIGEEPARRLRGAVESTPEVASFHVNVAVGYGGRREIVDAVRALLSKELANGATAEELVDAVTVEGISENLYTSGQPDPDLVIRTSGEQRLSGFLLWQSAYSEMWFTEAHWPAFRHVDFLRALRDYSARHRSYGR
B1 was tested, and the “stoichiometry N” value was 2.
